The values below come from PMC12350170, “Structural basis for the synergistic assembly of the snRNA export complex” (Nature Structural & Molecular Biology, 2025).

What all share (conditions): both partners purified
Experiment [1] has as its target Human Ran Q69L bound to GTP (human, UniProt P62826 1-216, Q69L). In words: SEC; Superdex 200 Increase 3.2/300; 180 pmol CBC and 360 pmol PHAX construct, CRM1 and RanGTP mixed with 100 μM capped 14-nt RNA (or U1 snRNA), 1 mM Mg2+, 1 mM KCl, 100 μM GTP, 30 min on ice; fractions on SDS-PAGE.
Another experiment addresses T1, Human CRM1 (human, UniProt O14980 1-1071).
T1 construct: CRM1 (XPO1), human; also called XPO1; exportin CRM1; source: E. coli Tg1, pQE60, purified (Ni2+-chelating Sepharose, heparin, Superdex 200)
The description is as above.

For experiment [2], the target named is T2, Human nuclear cap-binding complex (CBC): CBP80ΔNLS with CBP20 (human, UniProt Q09161 20-790; P52298 1-156).
T2 construct: CBP80 (NCBP1), human, CBP80ΔNLS lacking the N-terminal 19 residues; CBP20 (NCBP2), human; also called CBP80–CBP20; source: CBP80ΔNLS in High Five insect cells, CBP20 in E. coli BL21Star (DE3); pellets lysed together, purified (Ni2+-chelating Sepharose, TEV, heparin, Superdex 200)
T2 sequence 1: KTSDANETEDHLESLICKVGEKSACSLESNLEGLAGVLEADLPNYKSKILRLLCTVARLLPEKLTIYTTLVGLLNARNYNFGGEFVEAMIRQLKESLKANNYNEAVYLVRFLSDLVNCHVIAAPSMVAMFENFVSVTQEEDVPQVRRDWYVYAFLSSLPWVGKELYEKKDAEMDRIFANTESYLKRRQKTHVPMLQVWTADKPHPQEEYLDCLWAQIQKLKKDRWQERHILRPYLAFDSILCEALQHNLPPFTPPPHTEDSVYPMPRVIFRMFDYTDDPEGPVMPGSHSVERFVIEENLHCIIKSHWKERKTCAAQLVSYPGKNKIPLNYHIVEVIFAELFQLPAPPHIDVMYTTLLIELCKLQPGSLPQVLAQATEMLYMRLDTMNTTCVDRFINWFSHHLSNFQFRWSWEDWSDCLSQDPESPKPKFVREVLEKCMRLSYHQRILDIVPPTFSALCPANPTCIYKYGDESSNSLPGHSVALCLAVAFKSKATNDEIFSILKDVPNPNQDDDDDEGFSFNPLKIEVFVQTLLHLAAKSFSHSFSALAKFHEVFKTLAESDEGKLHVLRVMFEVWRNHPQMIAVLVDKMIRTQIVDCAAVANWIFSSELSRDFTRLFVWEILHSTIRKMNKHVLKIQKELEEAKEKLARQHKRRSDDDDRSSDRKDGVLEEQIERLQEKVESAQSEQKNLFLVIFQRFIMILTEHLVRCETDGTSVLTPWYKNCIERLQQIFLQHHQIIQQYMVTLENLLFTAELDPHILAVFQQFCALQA
T2 sequence 2: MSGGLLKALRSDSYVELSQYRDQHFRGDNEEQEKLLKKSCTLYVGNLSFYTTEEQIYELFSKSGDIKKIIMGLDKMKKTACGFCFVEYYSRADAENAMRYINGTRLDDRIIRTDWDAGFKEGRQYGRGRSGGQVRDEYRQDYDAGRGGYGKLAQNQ
The experiment is described as above.

The target of experiment [3] is T2, Human nuclear cap-binding complex …. In words: ITC; 25 °C, PEAQ-ITC; 0.2–0.25 mM PHAX 103–196 or mutant injected into 20 µM CBC in the presence or absence of 0.1 mM m7GTP or m7GpppG; 20 mM Tris pH 8.0, 100 mM NaCl, 2% glycerol; one-site model.
Experiment [4] concerns the target T3, CBP80ΔNLS (subunit of the human CBC) (human, UniProt Q09161 20-790).
T3 construct: CBP80 (NCBP1), human, lacking the N-terminal 19 residues; Stood in the assay as part of CBC; made a molecule of its own for the contacts seen in the structure; also called NCBP1; source: High Five insect cells; purified together with CBP20 as CBC
T3 sequence (looked up): T2 sequence 1
Kind of experiment: cryo-EM structure; snRNA export complex of CBC, CK2-phosphorylated PHAX, CRM1, Ran(Q69L)GTP and 14-nt capped RNA, purified on Superdex 200 Increase; Titan Krios 300 kV.

The target in experiment [5] is T4, Human full-length PHAX, phosphorylated in vitro by CK2 (human, UniProt Q9H814 1-394, phosphorylated by CK2 in vitro: between 3 and 5 phosphorylated sites, up to four within ST2 (residues 64–76); the positions are not given).
T4 construct: PHAX (Phosphorylated Adaptor for RNA Export), human, 394 amino acid residues; also called P-PHAX; phosphorylated PHAX; source: E. coli BL21Star (DE3), pETM11, purified (Ni2+-chelating Sepharose, heparin, Superdex 200); then treated with CK2 and ATP
The description is as above.

Substitutions are numbered along the chain they refer to. In names and notes the source's numbering stands.

T4 sequence (Q9H814 whole entry, the tested form may be a part): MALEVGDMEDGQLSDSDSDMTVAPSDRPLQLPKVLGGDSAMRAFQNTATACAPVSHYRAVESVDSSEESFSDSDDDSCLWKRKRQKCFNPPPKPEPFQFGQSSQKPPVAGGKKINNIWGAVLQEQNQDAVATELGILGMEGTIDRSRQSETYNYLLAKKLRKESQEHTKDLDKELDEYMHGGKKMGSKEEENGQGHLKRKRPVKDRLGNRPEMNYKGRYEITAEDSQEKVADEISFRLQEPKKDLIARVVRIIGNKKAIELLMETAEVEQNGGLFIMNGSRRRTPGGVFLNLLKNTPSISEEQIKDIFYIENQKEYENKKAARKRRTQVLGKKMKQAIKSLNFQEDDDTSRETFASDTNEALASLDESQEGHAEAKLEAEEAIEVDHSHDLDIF
T1 sequence (O14980 whole entry): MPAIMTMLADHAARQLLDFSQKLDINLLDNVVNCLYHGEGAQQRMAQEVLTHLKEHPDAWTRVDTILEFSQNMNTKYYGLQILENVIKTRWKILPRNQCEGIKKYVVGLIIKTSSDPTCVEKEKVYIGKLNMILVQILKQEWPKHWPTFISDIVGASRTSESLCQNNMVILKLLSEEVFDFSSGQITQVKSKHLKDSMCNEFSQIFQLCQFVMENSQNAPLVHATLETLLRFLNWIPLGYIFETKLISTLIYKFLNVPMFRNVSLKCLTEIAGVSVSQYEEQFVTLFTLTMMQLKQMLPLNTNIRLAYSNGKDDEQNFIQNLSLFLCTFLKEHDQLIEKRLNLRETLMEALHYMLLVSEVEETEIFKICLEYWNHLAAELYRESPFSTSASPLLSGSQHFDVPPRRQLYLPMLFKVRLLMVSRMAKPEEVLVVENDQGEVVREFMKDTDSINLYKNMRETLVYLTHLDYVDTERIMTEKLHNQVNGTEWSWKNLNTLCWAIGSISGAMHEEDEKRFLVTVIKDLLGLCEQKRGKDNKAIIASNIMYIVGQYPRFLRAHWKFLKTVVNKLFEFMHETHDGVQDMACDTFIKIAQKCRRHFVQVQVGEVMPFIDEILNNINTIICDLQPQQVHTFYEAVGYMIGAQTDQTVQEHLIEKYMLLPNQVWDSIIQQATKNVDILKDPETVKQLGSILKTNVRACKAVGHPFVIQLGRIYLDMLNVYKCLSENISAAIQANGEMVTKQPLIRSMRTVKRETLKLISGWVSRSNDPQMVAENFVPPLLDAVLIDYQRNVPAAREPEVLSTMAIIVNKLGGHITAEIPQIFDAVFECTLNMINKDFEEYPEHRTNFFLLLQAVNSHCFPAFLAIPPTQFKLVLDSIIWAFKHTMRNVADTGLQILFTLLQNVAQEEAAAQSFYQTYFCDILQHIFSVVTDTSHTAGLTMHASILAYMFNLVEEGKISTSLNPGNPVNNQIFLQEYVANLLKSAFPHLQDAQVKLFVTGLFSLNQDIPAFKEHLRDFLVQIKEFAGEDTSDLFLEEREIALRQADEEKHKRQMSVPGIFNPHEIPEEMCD

B1: MBP-PHAX103–196 (wild type) (domain or fragment, human, UniProt Q9H814 103-196, looked up)
chain: SQKPPVAGGKKINNIWGAVLQEQNQDAVATELGILGMEGTIDRSRQSETYNYLLAKKLRKESQEHTKDLDKELDEYMHGGKKMGSKEEENGQGH
notes: source: E. coli BL21Star (DE3), pETM41, purified (Ni2+-chelating Sepharose, Superdex 200); not shown: MBP, N-terminal, kept
Turning to B1, the binding result (in experiment [1]; with Human CRM1; in experiment [2]) was “binds” each time.

B2: MBP-PHAX103–196 R147E, Y152E, Y154E (domain or fragment, human, UniProt Q9H814 103-196, looked up)
chain: B1 chain with R45E, Y50E, Y52E
notes: as for B1
Regarding B2, the binding result in experiment [3] is listed as “binds”.

B3: MBP-PHAX103–196 Y154A (domain or fragment, human, UniProt Q9H814 103-196, looked up)
chain: B1 chain with Y52A
notes: as for B1
Consider B3, for which, in experiment [2], the binding result is recorded as “binds”.

B4: CBP20 (subunit of the human CBC) (natural protein)
chain: T2 sequence 2
notes: CBP20 (NCBP2), human; Stood in the assay as part of CBC; made a molecule of its own for the contacts seen in the structure; also called NCBP2; source: E. coli BL21Star (DE3), pETM30; purified together with CBP80ΔNLS as CBC
In the case of B4, the binding result in experiment [4] and in experiment [5] was “binds” in each case.
